Measured values published in publication PMC2881571 (Molecular microbiology, 2009).
Substitutions are numbered along the chain they refer to. Names and notes keep the numbering of the source. Where two headings read alike, the source gives them in different places.

Columns and labels:
6His-OspR [1] = molecular target: T1, 6His-OspR (Pseudomonas aeruginosa MPAO1, UniProt Q9I018 1-163); assay: EMSA
T1 sequence: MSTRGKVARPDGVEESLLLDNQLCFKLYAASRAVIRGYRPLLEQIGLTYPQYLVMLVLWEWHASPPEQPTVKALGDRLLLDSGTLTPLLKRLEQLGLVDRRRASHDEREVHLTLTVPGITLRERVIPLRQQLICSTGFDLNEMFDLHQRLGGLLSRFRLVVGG

6His-OspR C24S = molecular target: T2, 6His-OspR C24S (Pseudomonas aeruginosa MPAO1, UniProt Q9I018 1-163, C24S); assay: EMSA
T2 sequence: T1 sequence with C24S

6His-OspR [2] = molecular target: T1, 6His-OspR; assay: EMSA; remark: listed apart in the source
cross-linking = molecular target: the molecule itself; assay: cross-linking

B1: B2d (B2 lacking AATTnAATT, 34 bp) (dsDNA)
DNA 1: TTCAATCAAGTTGTGTGCGCGAGCTACTTTATTT
DNA 2: AAATAAAGTAGCTCGCGCACACAACTTGATTGAA
- binding result (6His-OspR [1]): no binding

B2: PA1897-p (70 bp) (dsDNA)
DNA 1: GGCAGGTTGTCCCTGCCGGGCTGTGACAATTTAATTCGACCAGGCATTTCATTGTCCGTGCCGATTTTCA
DNA 2: TGAAAATCGGCACGGACAATGAAATGCCTGGTCGAATTAAATTGTCACAGCCCGGCAGGGACAACCTGCC
- binding result (6His-OspR [1]): binds

B3: hmgA-p (PA2009-PA2010 intergenic, 70 bp) (dsDNA)
DNA 1: TGGCACGCTGGCTGCGTTATTTTTATCGTAATTCAATTACGCATAACGTAATTTGAGTGGAAGGCAGCGT
DNA 2: ACGCTGCCTTCCACTCAAATTACGTTATGCGTAATTGAATTACGATAAAAATAACGCAGCCAGCGTGCCA
- binding result (6His-OspR [1]): binds

B4: B2 (PA2826 promoter, 43 bp) (dsDNA)
DNA 1: TTCAATCAAGTTGTGTGCAATTGAATTGCGAGCTACTTTATTT
DNA 2: AAATAAAGTAGCTCGCAATTCAATTGCACACAACTTGATTGAA
- binding result (6His-OspR C24S): binds
- binding result (6His-OspR [2]): binds

B5: 6His-OspR C24S (natural protein, Pseudomonas aeruginosa MPAO1, UniProt Q9I018 1-163, looked up)
chain: T1 sequence with C24S
- binding result (cross-linking): binds
